Substrate: CC(=O)SCCNC(=O)CCNC(=O)[C@H](O)C(C)(C)COP(=O)(O)OP(=O)(O)OC[C@H]1O[C@@H](n2cnc3c(N)ncnc32)[C@H](O)[C@@H]1OP(=O)(O)O
Test: initial rates, Michaelis-Menten nonlinear regression
Assay type: biochemical, Escherichia coli
Details: 100 mM phosphate buffer pH 7.4, 25°C, acetyl-CoA 20-400 μmol/L
Excerpt: initial rates, Michaelis-Menten nonlinear regression on Pta (phosphate acetyltransferase; EC 2.3.1.8)

[1] = natural variant Pta1 from E. coli CCTCC M 2016009

B1: Pta (phosphate acetyltransferase; EC 2.3.1.8) (Escherichia coli K-12) (protein)
chain: SRIIMLIPTGTSVGLTSVSLGVIRAMERKGVRLSVFKPIAQPRTGGDAPDQTTTIVRANSSTTTAAEPLKMSYVEGLLSSNQKDVLMEEIVANYHANTKDAEVVLVEGLVPTRKHQFAQSLNYEIAKTLNAEIVFVMSQGTDTPEQLKERIELTRNSFGGAKNTNITGVIVNKLNAPVDEQGRTRPDLSEIFDDSSKAKVNNVDPAKLQESSPLPVLGAVPWSFDLIATRAIDMARHLNATIINEGDINTRRVKSVTFCARSIPHMLEHFRAGSLLVTSADRPDVLVAACLAAMNGVEIGALLLTGGYEMDARISKLCERAFATGLPVFMVNTNTWQTSLSLQSFNLEVPVDDHERIEKVQEYVANYINADWIESLTATSERSRRLSPPAFRYQLTELARKAGKRIVLPEGDEPRTVKAAAICAERGIATCVLLGNPAEINRVAASQGVELGAGIEIVDPEVVRESYVGRLVELRKNKGMTETVAREQLEDNVVLGTLMLEQDEVDGLVSGAVHTTANTIRPPLQLIKTAPGSSLVSSVFFMLLPEQVYVYGDCAINPDPTAEQLAEIAIQSADSAAAFGIEPRVAMLSYSTGTSGAGSDVEKVREATRLAQEKRPDLMIDGPLQYDAAVMADVAKSKAPNSPVAGRATVFIFPDLNTGNTTYKAVQRSADLISIGPMLQGMRKPVNDLSRGALVDDIVYTIALTAIQSAQQQ
notes: full length, untagged by primers (NdeI/HindIII in pET24a, native stop codon), expressed in E. coli BL21(DE3), DEAE-Sepharose purified, about 77 kDa; variant Pta1 (P69L) is natural in E. coli CCTCC M 2016009
Km: 89 ± 6.3 µM
kcat: 2380 ± 120 s⁻¹
kcat/Km: 2.7e+07 ± 3.6e+06 M⁻¹ s⁻¹

B2: Pta (phosphate acetyltransferase; EC 2.3.1.8) (Escherichia coli K-12; P69L) (protein)
chain: SRIIMLIPTGTSVGLTSVSLGVIRAMERKGVRLSVFKPIAQPRTGGDAPDQTTTIVRANSSTTTAAELLKMSYVEGLLSSNQKDVLMEEIVANYHANTKDAEVVLVEGLVPTRKHQFAQSLNYEIAKTLNAEIVFVMSQGTDTPEQLKERIELTRNSFGGAKNTNITGVIVNKLNAPVDEQGRTRPDLSEIFDDSSKAKVNNVDPAKLQESSPLPVLGAVPWSFDLIATRAIDMARHLNATIINEGDINTRRVKSVTFCARSIPHMLEHFRAGSLLVTSADRPDVLVAACLAAMNGVEIGALLLTGGYEMDARISKLCERAFATGLPVFMVNTNTWQTSLSLQSFNLEVPVDDHERIEKVQEYVANYINADWIESLTATSERSRRLSPPAFRYQLTELARKAGKRIVLPEGDEPRTVKAAAICAERGIATCVLLGNPAEINRVAASQGVELGAGIEIVDPEVVRESYVGRLVELRKNKGMTETVAREQLEDNVVLGTLMLEQDEVDGLVSGAVHTTANTIRPPLQLIKTAPGSSLVSSVFFMLLPEQVYVYGDCAINPDPTAEQLAEIAIQSADSAAAFGIEPRVAMLSYSTGTSGAGSDVEKVREATRLAQEKRPDLMIDGPLQYDAAVMADVAKSKAPNSPVAGRATVFIFPDLNTGNTTYKAVQRSADLISIGPMLQGMRKPVNDLSRGALVDDIVYTIALTAIQSAQQQ
notes: as for B1
Km [1]: 260 ± 13 µM
kcat [1]: 1480 ± 74 s⁻¹
kcat/Km [1]: 5.7e+06 ± 500000 M⁻¹ s⁻¹

— paper PMC4922666, “L-Tryptophan Production in Escherichia coli Improved by Weakening the Pta-AckA Pathway” (PLoS ONE, 2016)
